In patent US20250197488A1 (MABWELL SHANGHAI BIOSCIENCE, published 2025):

T1: IL-11 (Cat. 12225-HNCE, Sino Biological Inc.) (UniProt P20809 22-199, limits assumed)
T1 sequence (looked up): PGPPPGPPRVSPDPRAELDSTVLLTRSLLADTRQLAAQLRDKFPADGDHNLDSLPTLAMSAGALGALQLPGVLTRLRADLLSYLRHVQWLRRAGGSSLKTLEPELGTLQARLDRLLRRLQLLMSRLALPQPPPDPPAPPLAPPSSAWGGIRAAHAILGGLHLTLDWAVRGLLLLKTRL

T2: human IL-11 (AAH12506.1, Pro22-Leu199) (human, UniProt P20809 22-199)
T2 construct: The range Pro22-Leu199 counts on AAH12506.1; The Octet runs say only 'human IL-11'; also called hIL-11
T2 chain: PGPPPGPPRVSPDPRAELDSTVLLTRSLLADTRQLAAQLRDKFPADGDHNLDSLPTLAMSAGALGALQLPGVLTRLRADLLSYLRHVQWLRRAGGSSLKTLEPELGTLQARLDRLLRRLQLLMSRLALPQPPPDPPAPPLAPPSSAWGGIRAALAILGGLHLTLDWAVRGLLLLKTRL


Legend:
[1] = target: T1, IL-11 (Cat. 12225-HNCE, Sino Biological …); experiment: cell-based or functional assay
[2] = target: T2, human IL-11 (AAH12506.1, Pro22-Leu199); experiment: BLI (Octet), antibody captured, human IL-11 in solution
How it was run: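 Bio-layer interferometry on a Fortebio Octet QKe System. Antibodies (hybridoma supernatant or purified, diluted in HBS-EP+ buffer) were captured on anti-mouse IgG Fc (AMC) or anti-human Fc (AHC) biosensors. Human IL-11 at 300 nM in HBS-EP+ buffer flowed over, with 300 seconds association and 300 seconds dissociation. Blank-subtracted curves were fitted to a 1:1 Langmuir binding model to derive kon, koff and Kd.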

Binder	Blocking activity (IC50), STAT3-luc reporter [1] [µg/mL]	Kd [2] [nM]	koff [2] [s⁻¹]	kon [2] [M⁻¹ s⁻¹]
hz18A10-VHm1 + hz18A10-VLm15 (antibody, V domains shown, Constant regions not restated for this antibody) VH: EVQLVQSGAEVKKPGASVKVSCKASGYTFTTYNMDWVRQAPGQGLEWMGTIYPGNGDTSYNQKFKGRVTMTRDTSTSTVYMELSSLRSEDTAVYYCARGDLHFLDYWGQGTLVTVSS VL: DIQMTQSPSSLSASVGDRVTITCKASQSVSNDVAWYQQKPGKAPKLLIYRASSRYTGVPSRFSGSGSGTDFTFTISSLQPEDIATYYCQHDYSSPYTFGQGTKLEIK	1.88	0.585	0.000265	453000
hz18A10-VHm2 + hz18A10-VL (antibody, V domains shown, Constant regions not restated for this antibody) VH: EVQLVQSGAEVKKPGASVKVSCKASGYTFTTYNMDWVRQAPGQGLEWMGTIYPGNGDTSYNQKFKGRVTMTRDTSTSTVYMELSSLRSEDTAVYYCARGDLHYLDYWGQGTLVTVSS VL: DIQMTQSPSSLSASVGDRVTITCKASQSVSNDVAWYQQKPGKAPKLLIYSASNRYTGVPSRFSGSGSGTDFTFTISSLQPEDIATYYCQHDYSSPYTFGQGTKLEIK	11.6	2.29	0.00158	692000
hz18A10-VHm1 + hz18A10-VLm11 (antibody, V domains shown, Constant regions not restated for this antibody) VH: EVQLVQSGAEVKKPGASVKVSCKASGYTFTTYNMDWVRQAPGQGLEWMGTIYPGNGDTSYNQKFKGRVTMTRDTSTSTVYMELSSLRSEDTAVYYCARGDLHFLDYWGQGTLVTVSS VL: DIQMTQSPSSLSASVGDRVTITCKASQSVSNDVAWYQQKPGKAPKLLIYRASNRYTGVPSRFSGSGSGTDFTFTISSLQPEDIATYYCQHDYSSPYTFGQGTKLEIK	7.4	0.825	0.000287	348000
hz18A10-VHm1 + hz18A10-VLm14 (antibody, V domains shown, Constant regions not restated for this antibody) VH: EVQLVQSGAEVKKPGASVKVSCKASGYTFTTYNMDWVRQAPGQGLEWMGTIYPGNGDTSYNQKFKGRVTMTRDTSTSTVYMELSSLRSEDTAVYYCARGDLHFLDYWGQGTLVTVSS VL: DIQMTQSPSSLSASVGDRVTITCKASQSVSNDVAWYQQKPGKAPKLLIYRASRRYTGVPSRFSGSGSGTDFTFTISSLQPEDIATYYCQHDYSSPYTFGQGTKLEIK	9.68	1.03	0.000341	330000

Next, values leading:

Blocking activity (IC50), STAT3-luc reporter [1] [µg/mL]	Kd [2] [nM]	koff [2] [s⁻¹]	kon [2] [M⁻¹ s⁻¹]	Binder
10.9	2.17	0.00139	640000	hz18A10-VHm1 + hz18A10-VL (antibody, V domains shown, Constant regions not restated for this antibody) VH: EVQLVQSGAEVKKPGASVKVSCKASGYTFTTYNMDWVRQAPGQGLEWMGTIYPGNGDTSYNQKFKGRVTMTRDTSTSTVYMELSSLRSEDTAVYYCARGDLHFLDYWGQGTLVTVSS VL: DIQMTQSPSSLSASVGDRVTITCKASQSVSNDVAWYQQKPGKAPKLLIYSASNRYTGVPSRFSGSGSGTDFTFTISSLQPEDIATYYCQHDYSSPYTFGQGTKLEIK
13.1	2.4	0.0013	544000	hz18A10-VHm1 + hz18A10-VLm7 (antibody, V domains shown, Constant regions not restated for this antibody) VH: EVQLVQSGAEVKKPGASVKVSCKASGYTFTTYNMDWVRQAPGQGLEWMGTIYPGNGDTSYNQKFKGRVTMTRDTSTSTVYMELSSLRSEDTAVYYCARGDLHFLDYWGQGTLVTVSS VL: DIQMTQSPSSLSASVGDRVTITCKASQSVFRDVAWYQQKPGKAPKLLIYSASNRYTGVPSRFSGSGSGTDFTFTISSLQPEDIATYYCQHDYSSPYTFGQGTKLEIK
11.1	2.01	0.000963	479000	hz18A10-VHm1 + hz18A10-VLm9 (antibody, V domains shown, Constant regions not restated for this antibody) VH: EVQLVQSGAEVKKPGASVKVSCKASGYTFTTYNMDWVRQAPGQGLEWMGTIYPGNGDTSYNQKFKGRVTMTRDTSTSTVYMELSSLRSEDTAVYYCARGDLHFLDYWGQGTLVTVSS VL: DIQMTQSPSSLSASVGDRVTITCKASQSVYSDVAWYQQKPGKAPKLLIYSASNRYTGVPSRFSGSGSGTDFTFTISSLQPEDIATYYCQHDYSSPYTFGQGTKLEIK
